The subject of this experiment is TARC level in PBMCs stimulated with HDM and IL-13. The experiment is described as follows: TARC level in PBMCs treated by HDM and IL-13. The class given is cell-based, human. To be noted: HDM 10 ug/ml, IL-13 0.5 nM; tralokinumab 10 to 0.16 ug/ml; BFB759 1 ug/ml in combination. The method, then: 0.2 million PBMCs in 100 ul medium (RPMI1640, 10% heat-inactivated FBS) were added to each well of 96 well cell culture plate. BFB759 at multiple concentrations in 50 ul medium was added to the wells. The cells were incubated in the incubator for 45 min. Then, 50 ul HDM solution (final concentration 10 ug/ml) was added to the wells. After 7 days incubation, the supernatant was transferred to a new 96 well plate, and used in TARC ELISA right away, or frozen in −80 C freezer for ELISA later. For the combination studies of BFB759 with other drugs, the single agent or combination of drugs were added to the PBMCs, incubated for 45 min, then HDM solution, or HDM and IL-4 or IL-13 solution were added to the wells. The assay was incubated for 7 days, and the supernatant was harvested for TARC ELISA.
In the data shown in FIG. 16, HDM was used at 10 ug/ml, IL-13 was used at 0.5 nM, BFB759 was used at 1 ug/ml, tralokinumab was titrated from 10 ug/ml to 0.16 ug/ml (4 fold dilution, 4 series). Data shown are mean±s.d.

The record followed here is US20260008856A1, “METHODS OF TREATING DISEASE USING ANTI-IL1RAP ANTIBODIES AND ANTIBODY DRUG CONJUGATES” (Bluefin Biomedicine, Inc., priority 2022, published 2026).

B1: tralokinumab: IL-13 neutralizing antibody, produced by Bluefin Biomedicine according to the published protein sequence (antibody, chains of the INN, looked up, V domains shown)
VH: QVQLVQSGAEVKKPGASVKVSCKASGYTFTNYGLSWVRQAPGQGLEWMGWISANNGDTNYGQEFQGRVTMTTDTSTSTAYMELRSLRSDDTAVYYCARDSSSSWARWFFDLWGRGTLVTVSS
VL: SYVLTQPPSVSVAPGKTARITCGGNIIGSKLVHWYQQKPGQAPVLVIYDDGDRPSGIPERFSGSNSGNTATLTISRVEAGDEADYYCQVWDTGSDPVVFGGGTKLTVL
Consider B1, for which the “inhibition of TARC level in HDM and IL-13 stimulated cells” value is given as “dose dependent inhibition”.
